The text below walks through data of paper PMC4433741.

Holding throughout (assay): SPR
(In general: Surface plasmon resonance follows binding to a sensor surface in real time, without labels.)

Assay [1] has as its target human FcγRIIIa, His-tagged (human) (UniProt P08637).
The target of assay [2] is neonatal Fc receptor (FcRn), soluble, His-tagged (UniProt P55899). The settings on record: pH 6.0; Running buffer not stated; Table 1 labels the measurement pH 6.0.
Assay [3] has as its target human neonatal Fc receptor (FcRn), His-tagged (human) (UniProt P55899).

Chain of UniProt P08637 (P08637 17-208): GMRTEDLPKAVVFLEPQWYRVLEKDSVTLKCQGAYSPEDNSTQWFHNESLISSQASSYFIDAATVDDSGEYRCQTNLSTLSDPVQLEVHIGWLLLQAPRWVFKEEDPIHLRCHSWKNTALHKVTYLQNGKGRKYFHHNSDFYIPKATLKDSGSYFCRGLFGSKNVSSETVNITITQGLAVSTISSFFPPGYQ

Turning to VRC01 (the wild type) (antibody), in assay [1], the Kd (in general, the concentration at which binding is half-saturated) is 1300 nM and the off-rate (koff) (as a rule, a measure of how fast the partners let go of each other) was 0.105 s⁻¹.

In assay [2], VRC01 (wild-type Fc) IgG1 returned a Kon of 94000 M⁻¹ s⁻¹ and an off-rate (koff) of 0.279 s⁻¹.

In assay [1], “VRC01-IHH (non-FcRn-binding mutant) (antibody)” gave a Kd of 4500 nM and a dissociation rate constant (koff) of 0.187 s⁻¹.

Take VRC01-LS (antibody): in assay [3], the koff is 0.0558 s⁻¹ and the association rate constant (kon) (as a rule, the second-order rate constant of association) came to 223000 M⁻¹ s⁻¹. For the same substance, in assay [1], the dissociation constant Kd is 1010 nM and the koff is 0.1 s⁻¹.
